B1: H501-018 IgG (antibody, V domains shown)
VH: QVQLQESGPGLVKPSETLSLTCSVSGGSISNFYWSWIRQPPGKGLEWIGYIYYTGSSEYNPSLKSRVILSVDTSKNHFSLKLSSVTAADTAIYYCARGTWSRRLEVDLWGQGTLVTVSS
VL: QSVLTQPPSASGTPGQRVTISCSGSSSNIGSNYVYWYQQLPGTAPKLLIYRSIQRPSGVPDRFSGSKSGTSASLAISGLRSEDEADYYCATWDDSLNSWVFAGGTKLTVL
notes: also called mAb H501–018; H-018; copies: 2 + 2
B2: H501-022 IgG (antibody, V domains shown)
VH: QGTLKESGPMLVKPTQTLTLTCNFSGFSLSTSGVGVGWIRQPPGKALECLALIYWNDDQRYSPSLKTRLTITKDTSKNQVVLTMTNMDPVDTATYYCVYSMSRPVAGGVIDHWGQGTLVTVSS
VL: DIQLTQSPSSLSASEGDRVTITCWASQNIRGYLNWYQQKPGKAPKLLIYATSTLESGVPSRFSGSGSVTDYTLTISSLQPEDFATYSCQQSYSSPPTFGGGTKVDIK
notes: also called mAb H501–022; H-022; copies: 2 + 2
B3: H501-008 Fab (Fab, V domains shown)
VH: QVQLVQSGGGVVQPGRSLRLSCAVSGFTLDRYAMHWVRQAPGKALEWVALMSADGREQYYAESVKGRFTFSRDSSKNTLYLQMHNLRTDDSSVYFCAREGPMYYDAWSGRSYYNNYALDVWGRGTTVAVSS
VL: QSVLTQPPSVSAAPGQTVTISCSGSSSNIGDNYVSWYQQVPGTAPRLLVYDNNRRPLGIPDRFSGSKSGTSATLAIAGLQTGDEADYYCGTWDSSLSAGVFGGGTKLTVV
notes: also called H501–08 Fab
B4: H501-008 IgG (antibody, V domains shown)
VH: B3 VH
VL: B3 VL
notes: also called H501–08; mAb H501–008; copies: 2 + 2

Assays:
[1] = target: T1, HCoV-HKU1 RBD (residues 310-606 of isolate N5), as used in BLI (Human coronavirus HKU1, isolate N5, UniProt Q0ZME7); assay: BLI; conditions: both partners purified
T1 construct: source: FreeStyle 293-F, transfected (PEI), purified (Protein A, Superdex 200)
T1 sequence (Q0ZME7 310-606): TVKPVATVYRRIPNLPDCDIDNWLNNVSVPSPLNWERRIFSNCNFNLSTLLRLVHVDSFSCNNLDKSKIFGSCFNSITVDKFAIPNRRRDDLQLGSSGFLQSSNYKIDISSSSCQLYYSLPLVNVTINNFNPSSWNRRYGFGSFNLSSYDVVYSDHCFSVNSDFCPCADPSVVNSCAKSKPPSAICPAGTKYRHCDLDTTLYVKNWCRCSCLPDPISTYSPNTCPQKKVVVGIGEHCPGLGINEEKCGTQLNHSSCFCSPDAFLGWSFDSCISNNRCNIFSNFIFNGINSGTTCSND

[2] = target: T2, HCoV-HKU1 RBD (residues 310-606 of isolate N5), Fc- and His-tagged (Human coronavirus HKU1, isolate N5, UniProt Q0ZME7); assay: SPR; conditions: both partners purified
T2 construct: also called HCoV-HKU1 S1-CTD; not shown: Fc-tag, C-terminal, kept; 8X HisTag, C-terminal, kept
T2 sequence (Q0ZME7 310-606): as above

Binder	Kd [1]	koff [1]	kon [1]	Kd [2]
B1	0.37 nM	0.000105 s⁻¹	283000 M⁻¹ s⁻¹	
B2	2.01 nM	0.000555 s⁻¹	276000 M⁻¹ s⁻¹	
B3				0.161 nM
B4	0.937 nM	0.000315 s⁻¹	336000 M⁻¹ s⁻¹	
